Laboratory results as given in the supplement of paper PMC6755084.

B1: F1*; the commonest letter at each place (parent)
chain: GAGACCGCAACTGAAAAGTTGTTATCACTTGTCGTAAGACACTTTGGATGGGTTGAAGTTCTGCACGTAGAAGCAAAAGGC

Variants of: B1
Experiment: fraction ligated after 30 min (ligated reads / total reads); higher = more ligase activity
Conditions: with F1*sub RNA substrate (template-directed ligation), 42 °C
Procedure, shortened: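 Oligo-pool templates underwent PCR amplification, T7 transcription and gel purification to yield ribozyme variants. Gel-separated ligated and unligated bands were converted to complementary DNA with barcoded primers and sequenced on a MiSeq, keeping core bases of quality ≥20. The ratio of ligated reads to total reads gave the fraction ligated for every variant.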

Q: Which fraction ligated does the source give for C40T A56C here?
A: 0.773

Q: C40T A56G was tested. Which fraction ligated did it give?
A: 0.801

Q: For C40T A56T, which fraction ligated is on record?
A: 0.799

Q: A41C G55T was tested. Which fraction ligated did it give?
A: 0.751

Q: With A41C G55A as the variant, how does the fraction ligated read?
A: 0.804

Q: How did the fraction ligated turn out when A41C G55C was run?
A: 0.329

Q: How did the fraction ligated turn out when A39T G46A was run?
A: 0.805

Q: For A39T G46T, which fraction ligated is on record?
A: 0.771

Q: For A39T G46C, which fraction ligated is on record?
A: 0.64

Q: A39T C42G was tested. Which fraction ligated did it give?
A: 0.817

Q: How did the fraction ligated turn out when A39T C42A was run?
A: 0.846

Q: For A39T C42T, which fraction ligated is on record?
A: 0.829

Q: With C40A C42T as the variant, how does the fraction ligated read?
A: 0.818

Q: Which fraction ligated does the source give for C40A C42G here?
A: 0.803

Q: For C40A C42A, which fraction ligated is on record?
A: 0.821

Q: How did the fraction ligated turn out when C40A G47T was run?
A: 0.341

Q: How did the fraction ligated turn out when C40A G47C was run?
A: 0.25

Q: C40A G47A was tested. Which fraction ligated did it give?
A: 0.769

Q: For C40T A41C, which fraction ligated is on record?
A: 0.78

Q: How did the fraction ligated turn out when C40T A41T was run?
A: 0.822

Q: How did the fraction ligated turn out when C40T A41G was run?
A: 0.765

Q: Which fraction ligated does the source give for C40T T45A here?
A: 0.791

Q: For C40T T45G, which fraction ligated is on record?
A: 0.195

Q: With C40T T45C as the variant, how does the fraction ligated read?
A: 0.77

Q: With C40G G47C as the variant, how does the fraction ligated read?
A: 0.147

Q: For C40G G47A, which fraction ligated is on record?
A: 0.783

Q: With C40G G47T as the variant, how does the fraction ligated read?
A: 0.438

Q: With C40A A57C as the variant, how does the fraction ligated read?
A: 0.812

Q: For C40A A57G, which fraction ligated is on record?
A: 0.843

Q: How did the fraction ligated turn out when C40A A57T was run?
A: 0.792

Q: Which fraction ligated does the source give for A41G A48C here?
A: 0.736

Q: A41G A48G was tested. Which fraction ligated did it give?
A: 0.76

Q: How did the fraction ligated turn out when A41G A48T was run?
A: 0.625

Q: With C42A G46T as the variant, how does the fraction ligated read?
A: 0.789

Q: For C42A G46A, which fraction ligated is on record?
A: 0.821

Q: With C42A G46C as the variant, how does the fraction ligated read?
A: 0.811

Q: How did the fraction ligated turn out when C40G was run?
A: 0.816

Q: For C40T, which fraction ligated is on record?
A: 0.833

Q: Which fraction ligated does the source give for C40A here?
A: 0.833

Q: With C40G T43G as the variant, how does the fraction ligated read?
A: 0.819

Q: How did the fraction ligated turn out when C40G T43C was run?
A: 0.811

Q: How did the fraction ligated turn out when C40G T43A was run?
A: 0.817

Q: How did the fraction ligated turn out when C42A G55T was run?
A: 0.814

Q: For C42A G55C, which fraction ligated is on record?
A: 0.746

Q: For C42A G55A, which fraction ligated is on record?
A: 0.837

Q: With C42A G50A as the variant, how does the fraction ligated read?
A: 0.345

Q: With C42A G50C as the variant, how does the fraction ligated read?
A: 0.239

Q: Which fraction ligated does the source give for C42A G50T here?
A: 0.658

Q: Which fraction ligated does the source give for C40A A48T here?
A: 0.0719

Q: With C40A A48G as the variant, how does the fraction ligated read?
A: 0.739

Q: For C40A A48C, which fraction ligated is on record?
A: 0.658

Q: Which fraction ligated does the source give for C42A T44A here?
A: 0.855

Q: Which fraction ligated does the source give for C42A T44C here?
A: 0.834

Q: For C42A T44G, which fraction ligated is on record?
A: 0.805

Q: Which fraction ligated does the source give for A39T T44C here?
A: 0.821

Q: With A39T T44G as the variant, how does the fraction ligated read?
A: 0.827

Q: With A39T T44A as the variant, how does the fraction ligated read?
A: 0.79

Q: With C42G G46A as the variant, how does the fraction ligated read?
A: 0.808

Q: C42G G46T was tested. Which fraction ligated did it give?
A: 0.793

Q: C42G G46C was tested. Which fraction ligated did it give?
A: 0.816

Q: How did the fraction ligated turn out when C40A T43C was run?
A: 0.768

Q: How did the fraction ligated turn out when C40A T43G was run?
A: 0.801

Q: Which fraction ligated does the source give for C40A T43A here?
A: 0.856

Q: With C40T A57C as the variant, how does the fraction ligated read?
A: 0.823

Q: For C40T A57T, which fraction ligated is on record?
A: 0.798

Q: Which fraction ligated does the source give for C40T A57G here?
A: 0.839

Q: With C40A T49G as the variant, how does the fraction ligated read?
A: 0.674

Q: Which fraction ligated does the source give for C40A T49A here?
A: 0.517

Q: Which fraction ligated does the source give for C40A T49C here?
A: 0.116

Q: Which fraction ligated does the source give for C40G G50T here?
A: 0.548

Q: How did the fraction ligated turn out when C40G G50A was run?
A: 0.262

Q: For C40G G50C, which fraction ligated is on record?
A: 0.134

Q: With A41T G55A as the variant, how does the fraction ligated read?
A: 0.809

Q: A41T G55T was tested. Which fraction ligated did it give?
A: 0.81

Q: Which fraction ligated does the source give for A41T G55C here?
A: 0.706

Q: Which fraction ligated does the source give for A41T here?
A: 0.837

Q: How did the fraction ligated turn out when A41G was run?
A: 0.802

Q: For A41C, which fraction ligated is on record?
A: 0.775

Q: With A39T C40T as the variant, how does the fraction ligated read?
A: 0.809

Q: With A39T C40A as the variant, how does the fraction ligated read?
A: 0.818

Q: For A39T C40G, which fraction ligated is on record?
A: 0.808

Q: For C40A G46A, which fraction ligated is on record?
A: 0.819

Q: C40A G46C was tested. Which fraction ligated did it give?
A: 0.817

Q: Which fraction ligated does the source give for C40A G46T here?
A: 0.792

Q: With A41C A57C as the variant, how does the fraction ligated read?
A: 0.767

Q: With A41C A57G as the variant, how does the fraction ligated read?
A: 0.773

Q: Which fraction ligated does the source give for A41C A57T here?
A: 0.785

Q: A41C G46T was tested. Which fraction ligated did it give?
A: 0.676

Q: How did the fraction ligated turn out when A41C G46C was run?
A: 0.639

Q: How did the fraction ligated turn out when A41C G46A was run?
A: 0.764

Q: For C40A T45C, which fraction ligated is on record?
A: 0.358

Q: C40A T45G was tested. Which fraction ligated did it give?
A: 0.0271

Q: C40A T45A was tested. Which fraction ligated did it give?
A: 0.66

Q: C42G G50A was tested. Which fraction ligated did it give?
A: 0.372

Q: A39T was tested. Which fraction ligated did it give?
A: 0.833

Q: A39G T49C was tested. Which fraction ligated did it give?
A: 0.714

Q: For A39G T49A, which fraction ligated is on record?
A: 0.805

Q: For A39G T49G, which fraction ligated is on record?
A: 0.791

Q: With C40A G55T as the variant, how does the fraction ligated read?
A: 0.787

Q: For C40A G55A, which fraction ligated is on record?
A: 0.807

Q: For C40A G55C, which fraction ligated is on record?
A: 0.504

Q: How did the fraction ligated turn out when C40T G50A was run?
A: 0.567

Q: How did the fraction ligated turn out when C40T G50T was run?
A: 0.784

Q: For C40T G50C, which fraction ligated is on record?
A: 0.357

Q: How did the fraction ligated turn out when A41T A57G was run?
A: 0.807

Q: With A41T A57T as the variant, how does the fraction ligated read?
A: 0.808

Q: With A41T A57C as the variant, how does the fraction ligated read?
A: 0.787

Q: How did the fraction ligated turn out when C40T T43G was run?
A: 0.782

Q: C40T T43C was tested. Which fraction ligated did it give?
A: 0.795

Q: With C40T T43A as the variant, how does the fraction ligated read?
A: 0.819

Q: With C40G T49A as the variant, how does the fraction ligated read?
A: 0.683

Q: Which fraction ligated does the source give for C40G T49C here?
A: 0.365

Q: For C40G T49G, which fraction ligated is on record?
A: 0.763

Q: With C42A A57C as the variant, how does the fraction ligated read?
A: 0.797

Q: Which fraction ligated does the source give for C42A A57T here?
A: 0.848

Q: How did the fraction ligated turn out when C42A A57G was run?
A: 0.794

Q: How did the fraction ligated turn out when A41T A56T was run?
A: 0.792

Q: A41T A56G was tested. Which fraction ligated did it give?
A: 0.778

Q: A41T A56C was tested. Which fraction ligated did it give?
A: 0.784

Q: How did the fraction ligated turn out when A41G T44A was run?
A: 0.796

Q: How did the fraction ligated turn out when A41G T44C was run?
A: 0.76

Q: With A41G T44G as the variant, how does the fraction ligated read?
A: 0.809

Q: With A39T T49G as the variant, how does the fraction ligated read?
A: 0.769

Q: For A39T T49C, which fraction ligated is on record?
A: 0.0992

Q: How did the fraction ligated turn out when A39T T49A was run?
A: 0.717

Q: Which fraction ligated does the source give for A41T T45G here?
A: 0.283

Q: Which fraction ligated does the source give for A41T T45A here?
A: 0.741

Q: Which fraction ligated does the source give for A41T T45C here?
A: 0.428

Q: With C40G A41C as the variant, how does the fraction ligated read?
A: 0.784

Q: How did the fraction ligated turn out when C40G A41T was run?
A: 0.768

Q: C40G A41G was tested. Which fraction ligated did it give?
A: 0.807

Q: C40A A56T was tested. Which fraction ligated did it give?
A: 0.812

Q: With C40A A56G as the variant, how does the fraction ligated read?
A: 0.785

Q: Which fraction ligated does the source give for C40A A56C here?
A: 0.711

Q: With C40T G55A as the variant, how does the fraction ligated read?
A: 0.841

Q: Which fraction ligated does the source give for C40T G55T here?
A: 0.816

Q: With C40T G55C as the variant, how does the fraction ligated read?
A: 0.782

Q: With A41C T45C as the variant, how does the fraction ligated read?
A: 0.328

Q: Which fraction ligated does the source give for A41C T45A here?
A: 0.55

Q: A41C T45G was tested. Which fraction ligated did it give?
A: 0.0888

Q: With A41T G50T as the variant, how does the fraction ligated read?
A: 0.715

Q: How did the fraction ligated turn out when A41T G50A was run?
A: 0.342

Q: Which fraction ligated does the source give for A41T G50C here?
A: 0.268

Q: With C40T G46T as the variant, how does the fraction ligated read?
A: 0.792

Q: C40T G46C was tested. Which fraction ligated did it give?
A: 0.79

Q: How did the fraction ligated turn out when C40T G46A was run?
A: 0.809

Q: For C40A A41C, which fraction ligated is on record?
A: 0.811

Q: How did the fraction ligated turn out when C40A A41T was run?
A: 0.81

Q: C40A A41G was tested. Which fraction ligated did it give?
A: 0.766

Q: Which fraction ligated does the source give for A41T T49A here?
A: 0.686

Q: Which fraction ligated does the source give for A41T T49C here?
A: 0.658

Q: How did the fraction ligated turn out when A41T T49G was run?
A: 0.749

Q: C42A T43A was tested. Which fraction ligated did it give?
A: 0.82

Q: For C42A T43C, which fraction ligated is on record?
A: 0.825

Q: C42A T43G was tested. Which fraction ligated did it give?
A: 0.805

Q: For A39T T45G, which fraction ligated is on record?
A: 0.1

Q: A39T T45C was tested. Which fraction ligated did it give?
A: 0.676

Q: For A39T T45A, which fraction ligated is on record?
A: 0.744

Q: Which fraction ligated does the source give for C40T T49G here?
A: 0.812

Q: For C40T T49A, which fraction ligated is on record?
A: 0.792

Q: Which fraction ligated does the source give for C40T T49C here?
A: 0.38

Q: How did the fraction ligated turn out when C42A T45G was run?
A: 0.282

Q: For C42A T45C, which fraction ligated is on record?
A: 0.778

Q: C42A T45A was tested. Which fraction ligated did it give?
A: 0.766

Q: For C42G A57C, which fraction ligated is on record?
A: 0.818

Q: Which fraction ligated does the source give for C42G A57G here?
A: 0.807

Q: Which fraction ligated does the source give for C42G A57T here?
A: 0.834
